Assay results as given in patent US12559545.

Experiments:
[1] = molecular target: HeV-RBP head domain (residues 185-604), recombinant soluble (Hendra virus) (UniProt O89343); assay: BLI on HeV RBP head domain, after first mAb HENV-43
[2] = molecular target: HeV-RBP head domain (residues 185-604), recombinant soluble (Hendra virus) (UniProt O89343); assay: BLI on HeV RBP head domain, after first mAb HENV-26
[3] = molecular target: HeV-RBP head domain (residues 185-604), recombinant soluble (Hendra virus) (UniProt O89343); assay: BLI on HeV RBP head domain, after first mAb HENV-10
[4] = molecular target: HeV-RBP head domain (residues 185-604), recombinant soluble (Hendra virus) (UniProt O89343); assay: BLI on HeV RBP head domain, after first mAb HENV-18
[5] = molecular target: HeV-RBP head domain (residues 185-604), recombinant soluble (Hendra virus) (UniProt O89343); assay: BLI on HeV RBP head domain, after first mAb HENV-9
[6] = molecular target: HeV-RBP head domain (residues 185-604), recombinant soluble (Hendra virus) (UniProt O89343); assay: BLI on HeV RBP head domain, after first mAb HENV-32
[7] = molecular target: HeV-RBP head domain (residues 185-604), recombinant soluble (Hendra virus) (UniProt O89343); assay: BLI on HeV RBP head domain, after first mAb HENV-2
[8] = molecular target: full-length NiVM-RBP expressed on the surface of transfected cells (Nipah virus, strain Malaysia) (UniProt Q9IH62)
[9] = molecular target: full-length NiVB-RBP expressed on the surface of transfected cells (Nipah virus, strain Bangladesh) (UniProt Q9IH62)
[10] = molecular target: full-length HeV-RBP expressed on the surface of transfected cells (Hendra virus) (UniProt O89343)
[11] = molecular target: HeV-RBP head domain (residues 185-604), recombinant soluble (Hendra virus) (UniProt O89343); assay: BLI on HeV RBP head domain, after first mAb HENV-21
[12] = molecular target: NiVB RBP on live Nipah virus Bangladesh (Nipah virus, strain Bangladesh) (UniProt Q9IH62); assay: cell-based or functional assay
[13] = molecular target: HeV RBP on live Hendra virus (Hendra virus) (UniProt O89343); assay: cell-based or functional assay
[14] = molecular target: NiVM-RBP head domain (residues 183-602), recombinant soluble (Nipah virus, strain Malaysia) (UniProt Q9IH62); assay: ELISA, RBP head domain coated on plate, hybridoma IgG
[15] = molecular target: NiVB-RBP head domain (residues 185-602), recombinant soluble (Nipah virus, strain Bangladesh) (UniProt Q9IH62); assay: as above
[16] = molecular target: HeV-RBP head domain (residues 185-604), recombinant soluble (Hendra virus) (UniProt O89343); assay: as above
[17] = molecular target: HeV-RBP head domain (residues 185-604), recombinant soluble (Hendra virus) (UniProt O89343); assay: BLI on HeV RBP head domain, after first mAb HENV-1
[18] = molecular target: HeV-RBP head domain (residues 185-604), recombinant soluble (Hendra virus) (UniProt O89343); assay: BLI on HeV RBP head domain, after first mAb HENV-19

## HENV-26 (antibody)
[1]
  % of signal of second mAb alone: 109%
[2]
  % of signal of second mAb alone: -5%
[3]
  % of signal of second mAb alone: 100%
[4]
  % of signal of second mAb alone: 91%
[5]
  % of signal of second mAb alone: 97%
[6]
  % of signal of second mAb alone: 100%
[7]
  % of signal of second mAb alone: 97%
[8]
  EC50: 0.326 µg/mL
[9]
  EC50: 0.326 µg/mL
[10]
  EC50: 0.325 µg/mL
[11]
  % of signal of second mAb alone: 99%
[12]
  Area under the curve (neutralization): 289
  IC50, plaque reduction neutralization of live virus: 0.03 µg/mL
  IC80, plaque reduction neutralization of live virus: 0.12 µg/mL
  Max % Inhibition (neutralization): 100%
[13]
  Area under the curve (neutralization): 281
  IC50, plaque reduction neutralization of live virus: 0.07 µg/mL
  IC80, plaque reduction neutralization of live virus: 0.19 µg/mL
  Max % Inhibition (neutralization): 100%
[14]
  Area under the curve: 11
  EC50: 0.07 µg/mL
[15]
  Area under the curve: 10.5
  EC50: 0.09 µg/mL
[16]
  Area under the curve: 5.39
  EC50: 0.14 µg/mL
[17]
  % of signal of second mAb alone: 97%
[18]
  % of signal of second mAb alone: 91%
